Data on nine molecules can be found in article PMC8113551 (2021).

B1: c2G4 (antibody, V domains shown)
VH: EVQLQESGGGLMQPGGSMKLSCVASGFTFSNYWMNWVRQSPEKGLEWVAEIRLKSNNYATHYAESVKGRFTISRDDSKRSVYLQMNTLRAEDTGIYYCTRGNGNYRAMDYWGQGTSVTVS
VL: DIQMTQSPASLSVSVGETVSITCRASENIYSSLAWYQQKQGKSPQLLVYSATILADGVPSRFSGSGSGTQYSLKINSLQSEDFGTYYCQHFWGTPYTFGGGTKLEIK
B2: c13C6 (antibody, V domains shown)
VH: DVKLLESGGGLVQPGGSLKLSCAASGFSLSTSGVGVGWFRQPSGKGLEWLALIWWDDDKYYNPSLKSQLSISKDFSRNQVFLKISNVDIADTATYYCARRDPFGYDNAMGYWGQGTSVTVS
VL: DIVMTQSPLSLSTSVGDRVSLTCKASQNVGTAVAWYQQKPGQSPKLLIYSASNRYTGVPDRFTGSGSGTDFTLTISNMQSEDLADYFCQQYSSYPLTFGAGTKLELR
B3: mAb114 (antibody, V domains shown)
VH: EVQLVESGGGLIQPGGSLRLSCAASGFALRMYDMHWVRQTIDKRLEWVSAVGPSGDTYYADSVKGRFAVSRENAKNSLSLQMNSLTAGDTAIYYCVRSDRGVAGLFDSWGQGILVTVSS
VL: DIQMTQSPSSLSASVGDRITITCRASQAFDNYVAWYQQRPGKVPKLLISAASALHAGVPSRFSGSGSGTHFTLTISSLQPEDVATYYCQNYNSAPLTFGGGTKVEIK
B4: c4G7 (antibody, V domains shown)
VH: EVQLQESGPELEMPGASVKISCKASGSSFTGFSMNWVKQSNGKSLEWIGNIDTYYGGTTYNQKFKGKATLTVDKSSSTAYMQLKSLTSEDSAVYYCARSAYYGSTFAYWGQGTLVTVS
VL: DIQMTQSPASLSASVGETVTITCRASENIYSYLAWYQQKQGKSPQLLVYNAKTLIEGVPSRFSGSGSGTQFSLKINSLQPEDFGSYFCQHHFGTPFTFGSGTELEIK
B5: KZ52 (antibody, V domains shown)
VH: EVQLLESGGGLVKPGGSLRLSCAASGFTLINYRMNWVRQAPGKGLEWVSSISSSSSYIHYADSVKGRFTISRDNAENSLYLQMNSLRAEDTAVYYCVREGPRATGYSMADVFDIWGQGTMVTVSS
VL: not shown
B6: ADI-15878 (antibody, V domains shown)
VH: QVQLVQSGVTLVQPGGSLRVSCAASGFTFSSYAMSWVRQAPGKGLEWVSAISGLGGSTYYADSVKGRFTISRDNSKNTLYLQMNSLRAEDTAVYYCAKDHRVWAAGYHFDYWGQGALVTVSS
VL: DIVLTQSPSTLSASVGDRVTITCRASQSISSWLAWYQQKPGEAPKLLISDASSLESGVPSRFSGSGSGTEFTLTISSLQPDDFATYYCQQYYSSPTFGGGTKVEIK
B7: ADI-15946 (antibody, V domains shown)
VH: EVQLVESGGGLVKPGGSLRLSCAASGFTFSNAWMSWVRQAPGKGLEWVGRIKSKTDGGTIDYAAPVKGRFTISRDDSKNTVYLQMTSLKTEDTAVYYCTTYTEDMRYFDWLLRGGETFDYWGQGTLVTVSS
VL: DIRLTQSPSSLSASVGDRVTITCRASHYISTYLNWYQQKPGKAPKLLIYAASNLQSGVPSRFSGSGFGTDFSLTISSLQPEDFATYHCQQSYSTPGRYTFGQGTKVEIK
B8: CA45 (antibody, V domains shown)
VH: QVQLQEWGEGLVKPSETLSLTCAVYGGSISGYYHWNWIRLPPGKGLEWIGNIDGNSASTNYNPSLKTRVTISKDTSKNQISLKVRSLTAADTAVYYCARDPGFTIFGVVITSWSGLDSWGQGAVVTVSS
VL: DIQMTQSPSSLSASVGDTVTITCRASQSISNNLAWYQQRPRRAPQLLIYAASNLASGVPSRFSGSGSGTDFTLTISSLQAEDFAAYYCQQHNTLPLTFGGGTKVEIK
B9: mAb100 (antibody, V domains shown)
VH: QVQLQESGPGLVKPSDTLSLTCTVSGGSLSSFYWSWIRQPPGKGLEWIGYIYYSGSPNYSPSLESRVTMSVDTTRNQISLKLDSVTAADTAVYYCVRASRSYYWGSYRPTAFDSWGQGTLVTVSS
VL: SYELTQPLSVSVSPGQTAIFTCSGDNLGDKYVCWFQQRPGQSPMLLIYQDNKRPSGIPERFSGSNSGNTATLTISGTQSTDEADYYCQTWDSTVVFGGGTKLTVL

Where only a bound is given, the exact number is not on record here.

This assay concerns the target GP[change] (Zaire ebolavirus | , UniProt Q05320). The assay can be described thus: BLI. For orientation: BLI is a label-free optical method that tracks binding on a fibre tip over time.
For B1, the Kd (as a rule, the equilibrium constant for the complex coming apart) was under 1 pM. In the case of B2 it was under 1 pM; in that of B3, under 1 pM. In the case of B4 it was under 1 pM; in that of B5, under 1 pM; in that of B6, under 1 pM. The figure for B7 is under 1 pM; for B8 it is under 1 pM.

B9: the Kd was under 1 pM.
